The source of these data is the supplement of paper PMC9170038.

For data set [1], the system named is MS2 coat protein. Description: apparent KD of MS2 coat protein, switch ON state; designed switch direction (-1 OFF switch, 1 ON switch): -1; higher = weaker reporter binding. The settings on record: FMN input: 0 or 200 uM; Eterna round: R93 (includes R88 designs). An outline of the steps: (§1)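 Designed RNA switches were transcribed on-chip from Illumina sequencing clusters and titrated with SNAP-549-labelled MS2 coat protein in twofold steps from 0.7 or 1.5 nM up to 3 µM. Each step lasted 0.8–1.5 h at first and 10–20 min by the end, in 100 mM Tris-HCl pH 7.5, 80 mM KCl and 4 mM MgCl2, without or with constant ligand. Apparent KD is the median, for each design, of fits to normalised cluster binding curves.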

The test system of data set [2] is MS2 coat protein. Description: apparent KD of MS2 coat protein, switch OFF state (with FMN for OFF switches, without FMN for ON switches); designed switch direction (-1 OFF switch, 1 ON switch): -1; higher = weaker reporter binding. Conditions: FMN input: 0 or 200 uM; Eterna round: R93 (includes R88 designs). An outline of the steps:
as §1

Regarding “AAAAUACAUGAGGAUCACCCAUGUGAGGAUAUCUUAAAGGGAAUAAAAUAACUCAAAAAGAGAAGGCGCAAAAA [Ex 1 May 30]”, the “apparent KD of MS2 coat protein” value in data set [1] was 34.6 nM; in data set [2], 32 nM.
Consider “AAAAUGUCAGGAUAUGCGAAGGCAUCUGACAGAUGAGGAUUGCAGAAGGGACAUGAGGAUCACCCAUGUAAAAA”, for which the “apparent KD of MS2 coat protein” value in data set [1] was determined as 66.7 nM; in data set [2] it was 41.7 nM.
For “AAACCACAUGAGGAUCACCCAUGUGAGGAUAUGAACGAAAUAAAAUAAAAAAUAAAGUUCAGAAGGCACAAAAA [Mat - Exclusion 1 - Eli mod - D15]”, the “apparent KD of MS2 coat protein” value in data set [1] was 17.6 nM; in data set [2] it was 22.9 nM.
“AAACGUUGAGGAUAUACAAAAGGGUAUAAAUCAAAAAAAACACAUGAGGAUCACCCAUGUAGAAGGCAACGAAA”: the “apparent KD of MS2 coat protein” value was 128 nM in data set [1] and 65.6 nM in data set [2].
The corresponding values for “AAACGUUGAGGAUAUACGAAAAAGGGUAGGUCAAAUAAAACACAUGAGGAUCACCCAUGUAGAAGGCAACGAAA” are 333 nM and 3.66 nM.
Turning to “AAAGGACGAGGAUAUACAUGAGGAUCACCCAUGUAAAAAACAUAAGAAAAGAAGUUAUGUAGAAGGCGUCCAAA [69%, Moding Meechl, 13]”, the “apparent KD of MS2 coat protein” value in data set [1] was found to be 16.4 nM; in data set [2], 17.3 nM.
For “AAAGGAUCAGGAUAUGUGUGGGAAAAGUGUGUCCAAAAAAAACAUGAGGAUCACCCAUGUAGAAGGGAUCCAAA [Mod 6 of Normal (20/19) by Nando, Round 1]”, the “apparent KD of MS2 coat protein” value in data set [1] worked out at 487 nM; in data set [2] it was 265 nM.
“AAAGGGCGAGGAUAUACAUGAGGAUCACCCAUGUAAAAAACAUAAUAAAAGAAUUUAUGUAGAAGGCGCCCAAA [Ruby 60]”: the “apparent KD of MS2 coat protein” value in data set [1] was 15.2 nM; in data set [2], 14.4 nM.
Turning to “AAAGGGUCAGGAUAUCGAUUAAUAAUAAAAUAAAUGAAGAUCGAGAAGGGACAUGAGGAUCACCCAUGUAUAAC [May 79]”, the “apparent KD of MS2 coat protein” value turned out to be 41.8 nM in data set [1] and 64.6 nM in data set [2].
For the sequence “AAAGGGUCAGGAUAUGCACGAACAACAAAACAAAUAACGAUGCAGAAGGGACAUGAGGAUCACCCAUGUAUAAA [May 75]”, the entries for the “apparent KD of MS2 coat protein” value in data set [1] and in data set [2] were 33.4 nM and 52.1 nM, respectively.
For the sequence “AAAGUGCAAGGAUAUAUAUGAAAAGUUACGAAAGUAACAAAACAUGAGGAUCACCCAUGUAGAAGGUGCACAAA [Seclusion (MS2 riboswitches - Exlclusion 2)]”, the results for the “apparent KD of MS2 coat protein” value in data set [1] and in data set [2] were 24.6 nM and 18.3 nM, respectively.
The corresponding values for “AAAGUGUAAGGAUAUCUGAAAGGACACGAAAGUGACAAAGAAGAGAAGGUACAUGAGGAUCACCCAUGUAAAAA [milkweed 21]” are 28.7 nM and 18.1 nM.
Consider “AAAUAGCAAGGAUAUACAUGAGGAUCACCCAUGUAAGGAUGAUACGUAAUAGAAGAAAGUAGAAGGUGCAAAUA [Ex 3 Tesla 6]”, for which the “apparent KD of MS2 coat protein” value in data set [1] came to 42.8 nM; in data set [2] it was 148 nM.
In the case of “AAAUAGGCAGGAUAUACAUGAAAAUUAAAAAAAAAAAAAAAACAUGAGGAUCACCCAUGUAGAAGGGUCAAAAA [Exclusion 2 - Omei 2]”, the “apparent KD of MS2 coat protein” value came to 74.2 nM in data set [1] and 80.3 nM in data set [2].
The corresponding values for “AAAUGACUAGGAUAUACAUGAGGAUCACCCAUGUGUAUAAAUAAAUACACAAAAGAAAGUAGAAGGAGUCAAAA [Ex 3 May 14]” are 15.8 nM and 88.2 nM.
In the case of “AAAUUGUCAGGAUAUCCAGCUAUACGAAAUAUAUAUACACGGGAGAAGGGACAUGAGGAUCACCCAUGUUUGAA [JR_Exc004_Sub702]”, the “apparent KD of MS2 coat protein” value was determined as 34 nM in data set [1] and 27.6 nM in data set [2].
As for “AAAUUGUCAGGAUAUCCUAUAAUAAUAAAAUAGAGGAGAUAGGAGAAGGGACAUGAGGAUCACCCAUGUAAAAC [May 85]”, the “apparent KD of MS2 coat protein” value in data set [1] came to 37.7 nM; in data set [2], 31.2 nM.
For “AAAUUGUGAGGAUAUCUGGAUAGGAAAAAGAAAACCUAUCCAGAGAAGGCACAUGAGGAUCACCCAUGUAAAAA [JL cataway mod 5]”, the “apparent KD of MS2 coat protein” value is 61.7 nM in data set [1] and 96.8 nM in data set [2].
“AACAAACAUGAGGAUCACCCAUGUCAGGAUAUGCAAAUAACAAACAACAAACAACAAAGCAGAAGGGACGACAA [Mat - Exclusion 1 - Eli mod - D51]”: the “apparent KD of MS2 coat protein” value in data set [1] amounted to 22.1 nM; in data set [2], 25.6 nM.
In the case of “AACAAACAUGAGGAUCACCCAUGUCAGGAUAUGCAAAUAACAAACAACAAACAACAAAGCAGAAGGGAUAGGAA [Mat - Exclusion 1 - Eli mod - D52]”, the “apparent KD of MS2 coat protein” value is 23.3 nM in data set [1] and 21.2 nM in data set [2].
